These results are taken from patent US20190040136A1 (AGENCY FOR SCIENCE TECHNOLOGY AND RESEARCH, published 2019).

In experiment [1] the target is T1, biotinylated recombinant human LAG-3 (human, UniProt P18627 23-450, limits assumed, biotinylated).
T1 construct: also called soluble recombinant human LAG-3 protein
T1 sequence (looked up): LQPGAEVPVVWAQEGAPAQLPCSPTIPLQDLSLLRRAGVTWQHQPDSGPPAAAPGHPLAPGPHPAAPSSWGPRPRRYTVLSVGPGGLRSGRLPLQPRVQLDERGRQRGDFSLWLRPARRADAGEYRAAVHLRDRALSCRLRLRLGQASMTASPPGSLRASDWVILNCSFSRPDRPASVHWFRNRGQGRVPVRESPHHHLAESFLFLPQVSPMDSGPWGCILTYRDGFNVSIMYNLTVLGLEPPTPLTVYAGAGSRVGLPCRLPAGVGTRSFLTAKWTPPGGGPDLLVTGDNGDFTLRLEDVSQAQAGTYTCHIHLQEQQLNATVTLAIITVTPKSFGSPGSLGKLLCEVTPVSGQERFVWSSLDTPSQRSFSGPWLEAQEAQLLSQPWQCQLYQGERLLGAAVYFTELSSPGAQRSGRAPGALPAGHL
Nature of the experiment: ELISA, antibody coated on the plate, biotinylated recombinant human LAG-3 titrated (x axis, nM), streptavidin detection, absorbance 450-570 nm. (An ELISA detects its analyte on a solid surface through an enzyme-linked reagent.)

Experiment [2] deals with T2, human LAG-3 coupled to phycoerythrin (human, UniProt P18627 23-450, limits assumed, coupled to phycoerythrin).
T2 construct: also called Labelled LAG-3
T2 sequence (looked up): T1 sequence (looked up)
The experiment can be described thus: blocking assay, flow cytometry: phycoerythrin-coupled human LAG-3 pre-incubated with Fab, then binding to MHC class II on Daudi cells. (In general: A flow cytometer gives signals particle by particle.)

Experiment [3] addresses T3, mouse LAG-3 coupled to human Fc (mouse, UniProt Q61790 24-442, limits assumed).
T3 construct: also called murine LAG-3; Fc-coupled murine LAG-3; not shown: human Fc
T3 sequence (looked up): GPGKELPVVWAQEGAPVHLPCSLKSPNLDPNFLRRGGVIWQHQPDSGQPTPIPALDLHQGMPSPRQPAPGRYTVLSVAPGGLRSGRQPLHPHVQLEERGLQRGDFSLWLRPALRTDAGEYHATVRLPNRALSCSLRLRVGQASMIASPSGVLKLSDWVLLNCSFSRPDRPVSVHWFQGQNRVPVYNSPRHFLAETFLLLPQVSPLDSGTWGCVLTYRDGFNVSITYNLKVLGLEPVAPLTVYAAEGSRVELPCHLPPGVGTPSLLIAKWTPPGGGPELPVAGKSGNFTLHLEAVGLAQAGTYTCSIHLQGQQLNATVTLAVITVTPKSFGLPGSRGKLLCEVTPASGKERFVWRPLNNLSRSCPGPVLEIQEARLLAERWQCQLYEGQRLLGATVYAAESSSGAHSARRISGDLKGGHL
Nature of the experiment: ELISA, plate coated with mouse LAG-3-Fc, crude periplasmic Fab extract, anti-human Fab-HRP, absorbance 450-670 nm. On the procedure:
After extensive washes in PBS Tween-20, crude periplasmic extracts from the induction were transferred into the ELISA wells in the presence of 7% milk in PBS. After 90 minutes at room temperature under agitation and extensive washes, a goat anti-human Fab antibody coupled to HRP was added. One hour la ter, plates were washed and TMB substrate was added. The reaction was stopped with 1M HCl and optical density was measured at 450 nm with a reference at 670 nm. Antibodies giving an absorbance >0.1 were selected as positive. A first clonality screening was performed by DNA fingerprinting; clonality was then confirmed by sequencing.

Experiment [4] deals with T4, human LAG-3 (Bio-Layer Interferometry; construct not stated) (human, UniProt P18627 23-450, limits assumed).
T4 sequence (looked up): T1 sequence (looked up)
The experiment can be described thus: Bio-Layer Interferometry. On the technique in general: Biolayer interferometry detects binding as a change in optical thickness at a sensor tip.

The target of experiment [5] is T2, human LAG-3 coupled to phycoerythrin. Nature of the experiment: flow cytometry; inhibition of binding of PE-coupled human LAG-3 to MHC class II on Daudi cells. On the procedure:
Daudi cells were plated in 96-well plates and fixed/permeabilised in Fix/Perm buffer in the presence of anti-CD16/CD32 antibody. Premixes were added onto the Daudi cells and incubated for 30 minutes at 4° C. The cells were then washed three times in Perm/Wash buffer, resuspended in PBS and analysed by flow cytometry.

For experiment [6], the target named is T3, mouse LAG-3 coupled to human Fc. Nature of the experiment: ELISA, plate coated with mouse LAG-3 coupled to human Fc, Fab, absorbance 450-670 nm.
Experiment [7] concerns the target T5, Human LAG-3 coupled to human Fc (human, UniProt P18627 23-450, limits assumed).
T5 construct: also called LAG-3-Fc; human LAG-3-Fc; not shown: human Fc
T5 sequence (looked up): T1 sequence (looked up)
The experiment can be described thus: SPR (ProteOn XPR 36), human LAG-3-Fc immobilised, A6 Fab as analyte. On the procedure:
(§1) Association and dissociation rates were measured with a ProteOn XPR 36 analyser (Biorad) and the affinity (KD) was calculated.

Experiment [8] addresses T2, human LAG-3 coupled to phycoerythrin. Nature of the experiment: blocking assay, flow cytometry: labelled LAG-3 pre-incubated with Fab, then binding to MHC class II on Daudi cells, mean fluorescence intensity.
Experiment [9] has as its target T5, Human LAG-3 coupled to human Fc. Nature of the experiment: SPR (ProteOn XPR 36), human LAG-3-Fc immobilised, A6 Fab as analyte at five concentrations (L1A1-L1A5). On the procedure: as §1

B1: anti-LAG-3 antibody clone G8 in IgG1 format (antibody, V domains shown)
VH: QVQLVQSGGGVVQPGRSLRLSCAASGFTFSSYAMHWVRQAPGKGLEWVAVISYDGSNKYYADSVKGRFTISRDNSKNTLYLQMNSLRAEDTAVYYCARDPDAANWGFLLYYGMDVWGQGTTVTVSS
VL: EIVLTQSPGTLSLSPGERATLSCTTSQSVSSTSLDWYQQKPGQAPRLLIYGASSRATGIPDRFSGSGSGTDFTLTISRLEPEDFAVYYCQQYGSSLLTFGGGTKVEIK
notes: IgG1 format; also called G8 IgG1
The EC50 (read off the curve) is the concentration at which the effect is half-maximal. In the case of B1, the “EC50 (read off the curve)” value in experiment [1] is ~0.8 nM.

B2: anti-LAG-3 antibody clone G8 in IgG4 format (antibody, V domains shown)
VH: B1 VH
VL: B1 VL
notes: also called G8 IgG4
For B2, in experiment [1], the 50% effective concentration (EC50 (read off the curve)) was ~0.4 nM.

B3: anti-LAG-3 antibody clone G8 Fab (Fab, V domains shown)
VH: B1 VH
VL: B1 VL
For orientation: IC50 means the concentration at which inhibition is half-maximal. A higher IC50 goes with weaker potency in that assay. In experiment [2], B3 yielded a half-inhibitory concentration (IC50) of 12 nM. In addition, in experiment [3], the binding result is given as “no binding”.

B4: anti-LAG-3 antibody clone C2 Fab (Fab, V domains shown)
VH: B1 VH
VL: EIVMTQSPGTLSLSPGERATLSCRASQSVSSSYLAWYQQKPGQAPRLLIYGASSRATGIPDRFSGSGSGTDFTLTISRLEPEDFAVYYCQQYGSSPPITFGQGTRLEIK
For B4, the half-inhibitory concentration (IC50) in [2] was 33 nM. For the same molecule, the binding result in [3] is reported as “no binding”.

B5: anti-LAG-3 antibody clone G8 (format not stated) (antibody, V domains shown)
VH: B1 VH
VL: B1 VL
notes: also called antibody G8
The Kd is a measure of binding affinity in units of concentration. In the case of B5, the affinity in [4], expressed as Kd, was 0.7 nM.

B6: anti-LAG-3 antibody clone C12 Fab (Fab, V domains shown)
VH: QVQLVQSGAEVKKPGSSVKVSCKASGGTFSSYAISWVRQAPGQGLEWMGGIIPIFGTANYAQKFQGRVTITADESTSTAYMELSSLRSEDTAVYYCARALADFWSGYYYYYYMDVWGKGTTVTVSS
VL: DVVMTQSPLSLPVTPGEPASISCRSSQSLLHSDGYNYFDWYLQKPGQSPQLLIYLGSNRAAGVPDRFSGSGSGTDFTLKISRVEAEDVGVYYCMQGTHWPPTFGQGTKLEIK
In experiment [2], B6 yielded an IC50 of 18 nM. In addition, in [3], the binding result is “binds”.

B7: anti-LAG-3 antibody clone 1G11 Fab (Fab, V domains shown)
VH: QLQLQESGGDVVQPGRSLRLSCAASGFTFSSYGMHWVRQAPGKGLEWVAVISYDGSNKYYADSVKGRFTISRDNSKNTLYLQMNSLRAEDTAVYYCARLPGWGAYAFDIWGQGTMVTVSS
VL: EIVLTQSPGTLSLSPGERATLSCRASQSVSSSFLAWYQQKPGQAPRLLIYGASSRATGIPDRFSGSGSGTDFTLTISRLEPEDFAVYYCQQYGPSITFGGGTKVEIK
For B7, in [5], the 50% inhibitory concentration (IC50) was 378 nM. Besides, the binding result in experiment [6] is “binds”.

B8: anti-LAG-3 antibody clone F5 in IgG1 format (antibody, V domains shown)
VH: EVQLVQSGAEVKKPGASVKVSCKVSGYTLTELSMHWVRQTPGKGLEWMGGFDPEDGETIYAQKFQGRVTMTEDTSTDTAYMELSSLRSEDTAVYYCATTWFGELYYWGQGTLVTVSS
VL: ETTLTQSPGTLSLSPGERATLSCRASQSVSSGYLAWYQQKPGQAPRLLIYDASSRATGIPDRFSGSGSGADFTLTISRLQPEDFAVYYCQQYGSSRPGLTFGGGTRVEIK
notes: IgG1 format; also called F5-IgG1
B8: the “EC50 (read off the curve)” value in experiment [1] is ~5 nM.

B9: anti-LAG-3 antibody clone F5 (format not stated) (antibody, V domains shown)
VH: B8 VH
VL: B8 VL
notes: also called antibody F5
B9 gave a Kd in [4] of 1.21 nM.

B10: anti-LAG-3 antibody clone F5 in IgG4 format (antibody, V domains shown)
VH: B8 VH
VL: B8 VL
notes: also called F5 IgG4
In the case of B10, the “EC50 (read off the curve)” value in experiment [1] is ~3 nM.

B11: anti-LAG-3 antibody clone F5 Fab (Fab, V domains shown)
VH: B8 VH
VL: B8 VL
Regarding B11, the half-inhibitory concentration (IC50) in experiment [2] was 3 nM. The binding result in experiment [3] is “no binding”.

B12: anti-LAG-3 antibody clone A6 in IgG1 format (antibody, V domains shown)
VH: EVQLVQSGAEVKKPGSSVKVSCKASGYTFTSYYMHWVRQAPGQGLEWMGIINPSGGSTSYAQKFQGRVTMTRDTSTSTVYMELSSLRSEDTAVYYCAMPFGDFDYWGQGTLVTVSS
VL: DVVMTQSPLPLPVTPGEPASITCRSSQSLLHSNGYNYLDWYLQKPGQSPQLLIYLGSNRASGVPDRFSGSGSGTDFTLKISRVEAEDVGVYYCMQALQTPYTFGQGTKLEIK
notes: also called A6 IgG1
For B12, the concentration giving a half-maximal response (EC50 (read off the curve)) in experiment [1] was ~0.7 nM.

B13: anti-LAG-3 antibody clone A6 in IgG4 format (antibody, V domains shown)
VH: B12 VH
VL: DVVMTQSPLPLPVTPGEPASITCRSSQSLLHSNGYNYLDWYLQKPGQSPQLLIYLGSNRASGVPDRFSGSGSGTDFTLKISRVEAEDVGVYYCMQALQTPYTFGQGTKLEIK
notes: also called A6 IgG4
Take B13: the “EC50 (read off the curve)” value in experiment [1] was ~0.6 nM.

B14: anti-LAG-3 antibody clone A6 (format not stated) (antibody, V domains shown)
VH: B12 VH
VL: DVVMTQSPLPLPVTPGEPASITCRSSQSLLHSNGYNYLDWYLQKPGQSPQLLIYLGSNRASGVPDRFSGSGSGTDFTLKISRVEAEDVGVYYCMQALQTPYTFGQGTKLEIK
notes: also called antibody A6
The molecule B14 came in with a Kd in experiment [4] of 1.25 nM.

B15: anti-LAG-3 antibody clone A6 Fab (Fab, V domains shown)
VH: B12 VH
VL: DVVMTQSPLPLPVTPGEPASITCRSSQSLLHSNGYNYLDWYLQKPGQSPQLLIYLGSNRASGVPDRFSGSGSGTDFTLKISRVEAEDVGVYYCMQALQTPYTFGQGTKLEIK
notes: Fab format, from a human phage display library; the constant domains of the Fab are not
One may read the koff as a measure of how fast the partners let go of each other. A high value points to a short-lived complex. Broadly, the kon is the second-order rate constant of association. For the molecule B15, the IC50 is 62.2 nM in [5] and 111 nM in experiment [2]. The dissociation constant (Kd) in experiment [7] stood at 2.2 nM; in [9] it was 2.18 nM. In addition, the “IC50 (read off the curve)” value in experiment [8] is ~60 nM. The same molecule displayed a koff in experiment [9] of 0.000456 s⁻¹. The kon in experiment [9] was 209000 M⁻¹ s⁻¹.
